Experimental data from patent publication US20130217572A1, “SPECIFIC DELIVERY OF AGROCHEMICALS” (VRIJE UNIVERSITEIT BRUSSEL, priority 2010, published 2013).

Assays:
[1] = molecular target: T1, potato lectin (Sigma) (potato, UniProt Q9S8M0 23-323); assay: microcapsule retention; L: amine capsules, BS3 two-step, 0.1 ug VHH/cm2; potato lectin coat 100 ug/ml; 10% coverage
T1 construct: Bought glycoprotein, coated on ELISA plates
T1 sequence (looked up): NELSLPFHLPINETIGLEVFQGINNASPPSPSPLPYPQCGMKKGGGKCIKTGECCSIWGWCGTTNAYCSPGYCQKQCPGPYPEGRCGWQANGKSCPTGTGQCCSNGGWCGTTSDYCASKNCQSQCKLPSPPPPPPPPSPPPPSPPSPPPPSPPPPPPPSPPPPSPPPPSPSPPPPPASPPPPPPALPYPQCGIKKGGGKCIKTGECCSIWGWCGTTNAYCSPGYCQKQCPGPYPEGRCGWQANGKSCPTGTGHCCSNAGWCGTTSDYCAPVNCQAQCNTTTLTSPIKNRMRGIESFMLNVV

[2] = molecular target: T1, potato lectin (Sigma); assay: microcapsule retention; C: carboxyl capsules, EDC/Sulfo-NHS, 1 ug VHH/cm2; potato lectin coat 1 ug/ml; 10% coverage
[3] = molecular target: T1, potato lectin (Sigma); assay: microcapsule retention; H: amine capsules, BS3 one-step, 0.1 ug VHH/cm2; potato lectin coat 10 ug/ml; 10% coverage
[4] = molecular target: T1, potato lectin (Sigma); assay: microcapsule retention; K: amine capsules, BS3 two-step, 1 ug VHH/cm2; potato lectin coat 1 ug/ml; 10% coverage
[5] = molecular target: T1, potato lectin (Sigma); assay: microcapsule retention; C: carboxyl capsules, EDC/Sulfo-NHS, 1 ug VHH/cm2; potato lectin coat 100 ug/ml; 10% coverage
[6] = molecular target: T1, potato lectin (Sigma); assay: microcapsule retention; L: amine capsules, BS3 two-step, 0.1 ug VHH/cm2; potato lectin coat 1 ug/ml; 10% coverage
[7] = molecular target: T1, potato lectin (Sigma); assay: microcapsule retention; H: amine capsules, BS3 one-step, 0.1 ug VHH/cm2; potato lectin coat 10 ug/ml; 100% coverage
[8] = molecular target: unrelated antigens; assay: VHH-coupled lambda-cyhalothrin microcapsules retained on wells coated with unrelated antigen; 20% surface coverage
[9] = molecular target: unrelated antigens; assay: VHH-coupled Uvitex OB microcapsules retained on wells coated with unrelated antigen; 4% surface coverage
[10] = molecular target: unrelated antigens; assay: VHH-coupled lambda-cyhalothrin microcapsules retained on wells coated with unrelated antigen; 100% surface coverage
[11] = molecular target: unrelated antigens; assay: VHH-coupled Uvitex microcapsules retained on wells coated with unrelated antigen; 20% surface coverage
[12] = molecular target: T2, potato lectin (Solanum tuberosum, UniProt Q9S8M0); assay: ELISA-like assay of VHH-coupled microcapsules on antigen-coated wells; settings: microcapsule binding assays
T2 sequence (Q9S8M0 23-323): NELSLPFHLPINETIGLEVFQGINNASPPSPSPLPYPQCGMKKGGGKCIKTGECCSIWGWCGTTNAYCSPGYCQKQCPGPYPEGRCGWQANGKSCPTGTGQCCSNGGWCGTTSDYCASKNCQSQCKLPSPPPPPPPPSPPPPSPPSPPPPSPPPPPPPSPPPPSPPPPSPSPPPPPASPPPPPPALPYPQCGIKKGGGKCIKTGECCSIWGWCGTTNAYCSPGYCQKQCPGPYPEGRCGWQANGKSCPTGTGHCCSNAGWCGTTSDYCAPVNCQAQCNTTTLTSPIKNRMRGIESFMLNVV
Method: An ELISA-like assay setup was used to evaluate the interaction of VHH-coupled microcapsules to antigen-containing surfaces. ELISA plates (Maxisorp (Thermo Scientific Nunc) or high bind half area microplates (Greiner Bio-One)) were coated with gum arabic or potato lectin. Coatings were performed overnight with 100 μg/ml gum arabic or potato lectin in PBS. Control wells included blank wells or wells coated with unrelated antigens. Plates were washed three times with PBS with 0.05%-TWEEN®-20 and blocked with 5% skimmed milk in PBS for 1 to 2 hours. VHH-coupled lambda cyhalothrin-containing or Uvitex-containing microcapsules were diluted to appropriate densities in 1% skimmed milk in PBS with 0.05%-TWEEN®-20. Microcapsules were added to the antigen-coated or control wells and allowed to bind for 1 hour. Unbound microcapsules were removed by washing five times with PBS with 0.05%-TWEEN®-20. The bottoms of ELISA plate wells were analyzed for bound microcapsules on a macrozoom microscope system (Nikon). Microcapsules were counted using Volocity image analysis software (Perkin Elmer). A DAPI filter was used to visualize Uvitex microcapsules. White LED illumination and bright field pictures were used for lambda cyhalothrin microcapsules. Controls for lambda cyhalothrin-containing or Uvitex-containing microcapsules included blank microcapsules and microcapsules to which unrelated VHH were coupled.

[13] = tested on: gum arabic; assay: VHH binding to gum arabic in ELISA; parameters: species or system acacia tree
Method: Titration of VHH antibody fragments was performed on ELISA plates (Maxisorp, Nunc) coated with 100 μl per well 100 μg/ml gum arabic in 50 mM carbonate pH9.6. Plates were coated at 4° C. overnight and coating was continued at room temperature for 1 hour on the next day. Plates were washed three times with PBS/0.05%-TWEEN®-20 and blocked with 5% skimmed milk in PBS for 1 hour. Four-fold serial dilutions of purified VHH antibody fragments were prepared in 1% MPBS/0.05%-TWEEN®-20 in polypropylene 96-well plates. Antibody concentrations ranged from 3 μg/ml to 12 ng/ml. Antibody dilutions were transferred to the gum arabic-coated plates and VHH antibody fragments were allowed to bind for 1 hour at room temperature. Bound VHH were detected with sequential incubations with monoclonal mouse anti-histidine antibodies (Abd Serotec) and rabbit anti-mouse IgG whole molecule antibodies conjugated with alkaline phosphatase (RaM/AP) (Sigma) in 1% MPBS/0.05%-TWEEN®-20. Unbound antibodies were removed by washing three times with PBS/0.05%-TWEEN®-20 after each antibody incubation. The plates were washed an additional two times with PBS and 100 μl pNPP disodium hexahydrate substrate (Sigma) was added to each well. The absorbance at 405 nm was measured and plotted as function of antibody concentration (see Table 1).

[14] = molecular target: T1, potato lectin (Sigma); assay: ELISA, potato lectin coated at 100 ug/ml, VHH at 3 ug/ml, anti-histidine detection
Method: ELISA plates (Maxisorp, Nunc) coated with 100 μl per well 100 μg/ml potato lectin (Sigma) in PBS were coated at 4° C. overnight and coating was continued at room temperature for 1 hour on the next day. Plates were washed three times with PBS/0.05%-TWEEN®-20 and blocked with 5% skimmed milk in PBS for 1 hour. VHH (3 μg/ml) were transferred to the potato lectin-coated plates and VHH antibody fragments were allowed to bind for 1 hour at room temperature. Bound VHH were detected with sequential incubations with monoclonal mouse anti-histidine antibodies (Abd Serotec) and rabbit anti-mouse IgG whole molecule antibodies conjugated with alkaline phosphatase (RaM/AP) (Sigma) in 1% MPBS/0.05%-TWEEN®-20. Unbound antibodies were removed by washing three times with PBS/0.05%-TWEEN®-20 after each antibody incubation. The plates were washed an additional two times with PBS and 100 μl pNPP disodium hexahydrate substrate (Sigma) was added to each well and the absorbance at 405 nm was measured (see Table 2).

Control VHH gave a microcapsule counts (microcapsules) [1] of 248, a microcapsule counts (microcapsules) [2] of 49 and a microcapsule counts (microcapsules) [3] of 215. The microcapsule counts (microcapsules) [4] was 215, the microcapsule counts (microcapsules) [5] was 55 and the microcapsule counts (microcapsules) [6] was 116. For the same molecule, the microcapsule counts (microcapsules) [7] was 780.

B1: VHH 3E6 (VHH)
VHH: QVQLQESGGGLVQPGGTLSLSCAASGFNVRWYGMGWFRQAPGKEREGVACISALQETTAYADSVKGRFTLSRDNPKNTLSLQMNNLQPEDTGVYYCATTDCDDSSRMTYTSYLGQGTQVTVSS
notes: also called Monovalent VHH 3E6
Molecule B1 has a counts of bound microcapsules (microcapsules) [8] of 601, an area of bound microcapsules [9] of 23.5 and a counts of bound microcapsules (microcapsules) [10] of 861. For the same molecule, the surface area of bound microcapsules [11] was 27.7, the “binding to antigen-coated surfaces when coupled to a microcapsule” value [12] was “capable of binding specifically to antigen-coated surfaces” and the “binding to surfaces with unrelated antigens when coupled to a microcapsule” value [12] was “No significant binding”. The “absorbance at 405 nm” value ([13]; Table 2, gum arabic coat, VHH 3 μg/ml) was 0.882, the “absorbance at 405 nm” value ([13]; [VHH] 0.0117188 μg/ml (0.78125 nM), gum arabic 100 μg/ml) was 0.392 and the “absorbance at 405 nm” value ([13]; [VHH] 0.04688 μg/ml (3.125 nM), gum arabic 100 μg/ml) was 0.905. For the same molecule, the “absorbance at 405 nm” value ([13]; [VHH] 0.1875 μg/ml (12.5 nM), gum arabic 100 μg/ml) was 1.518, the “absorbance at 405 nm” value ([13]; [VHH] 0.75 μg/ml (50 nM), gum arabic 100 μg/ml) was 1.904 and the “absorbance at 405 nm” value ([13]; [VHH] 3 μg/ml (200 nM), gum arabic 100 μg/ml) was 2.154. For the same molecule, the “absorbance at 405 nm” value ([13]; [VHH] 3 μg/ml (200 nM), no gum arabic coat (−)) was 0.090 and the “absorbance at 405 nm” value [14] was 4.
